# Measurements as given in paper PMC12581942, “EIN3-binding F-box protein SlEBF3 modulates resistance against Botrytis cinerea and carotenoid biosynthesis by degradation of BBX20 in tomato”.
# Molecular target: SlTAGL1-His (Solanum lycopersicum, UniProt E9JUM2 1-269)
# Assay: EMSA; not given; Beyotime EMSA/Gel-Shift kit and Thermo LightShift Chemiluminescent EMSA kit
# Settings: protein: recombinant; tags: His (pET28a); chain copies: 2; label: biotin 3'; blunt
# Sequence of SlTAGL1-His (E9JUM2 entry or part of it): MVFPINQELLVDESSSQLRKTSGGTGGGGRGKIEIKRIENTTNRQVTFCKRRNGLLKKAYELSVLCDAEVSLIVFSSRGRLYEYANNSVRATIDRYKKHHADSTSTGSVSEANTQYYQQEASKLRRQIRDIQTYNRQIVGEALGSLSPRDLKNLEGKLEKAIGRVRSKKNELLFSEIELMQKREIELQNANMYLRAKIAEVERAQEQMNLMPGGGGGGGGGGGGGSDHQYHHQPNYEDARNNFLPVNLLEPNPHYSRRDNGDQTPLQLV
binder,measurement,value
SlPSY1 promoter probe (dsDNA) DNA 1: GAATTGAGCACTTGGCTTTTGTATATAGCTTCTATGTGTACCAAAATT DNA 2: AATTTTGGTACACATAGAAGCTATATACAAAAGCCAAGTGCTCAATTC,binding result,binds
